Laboratory results reported in WO1992001059A1.

What was measured:
[1] = target: carcinoembryonic antigen (CEA) (UniProt P06731); assay: competition RIA on CEA coated beads, transfected CHO cell supernatant
[2] = target: carcinoembryonic antigen (CEA) (UniProt P06731); assay: competition RIA on CEA coated beads, transfected CHO cell supernatant; apparent A5B7 concentration divided by assembly assay result
[3] = target: carcinoembryonic antigen (CEA) (UniProt P06731); assay: competition RIA, 125I-labelled A5B7 IgG1 on CEA coated beads, purified material
[4] = target: carcinoembryonic antigen (CEA) (UniProt P06731); assay: competition RIA on CEA coated beads

Chain of carcinoembryonic antigen (CEA) (P06731 35-685 limits assumed): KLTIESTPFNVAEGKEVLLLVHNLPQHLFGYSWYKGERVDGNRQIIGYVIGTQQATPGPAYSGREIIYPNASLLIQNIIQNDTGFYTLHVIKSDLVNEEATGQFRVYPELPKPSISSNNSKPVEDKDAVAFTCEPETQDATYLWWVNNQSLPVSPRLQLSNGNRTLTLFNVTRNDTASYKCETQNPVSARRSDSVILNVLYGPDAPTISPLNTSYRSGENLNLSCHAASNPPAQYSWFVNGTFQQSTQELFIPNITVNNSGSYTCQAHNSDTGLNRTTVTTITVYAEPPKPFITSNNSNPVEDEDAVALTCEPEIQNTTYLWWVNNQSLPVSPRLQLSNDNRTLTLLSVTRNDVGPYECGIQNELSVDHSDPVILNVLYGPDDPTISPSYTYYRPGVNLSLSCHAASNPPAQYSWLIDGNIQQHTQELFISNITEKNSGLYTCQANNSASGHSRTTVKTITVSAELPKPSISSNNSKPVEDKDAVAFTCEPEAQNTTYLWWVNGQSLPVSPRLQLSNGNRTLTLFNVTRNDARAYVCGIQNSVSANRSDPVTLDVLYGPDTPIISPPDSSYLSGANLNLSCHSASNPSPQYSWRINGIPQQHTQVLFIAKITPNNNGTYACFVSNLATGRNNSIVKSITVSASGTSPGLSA

| Substance | % Relative Potency [1] | Specific activity [2] | % Relative Potency [3] | fold reduced potency against murine A5B7 IgG [4] |
| --- | --- | --- | --- | --- |
| chimeric A5B7 IgG1 whole antibody | 100% | 1.17 | 100% | – |
| murine A5B7 F(ab')2 | – | – | 97% | – |
| murine A5B7 Fab' (alkylated) | – | – | 8% | 10 fold |
